Laboratory results published in patent publication US20230212549A1, “COMPOUNDS COMPRISING A […] LIGAND AND USE THEREOF” (priority 2021, published 2023).
Values belong to the binder of their own block, whether it stands above or below them. Bridge positions count the residues as written; N and C are the ends.

What was measured:
Experiment in all cases: radioligand displacement (antagonist radioligand), 10 µM
[1] = molecular target: T1, 5-HT3 (h) (human), P46098; conditions: remark: other sources report otherwise
T1 chain: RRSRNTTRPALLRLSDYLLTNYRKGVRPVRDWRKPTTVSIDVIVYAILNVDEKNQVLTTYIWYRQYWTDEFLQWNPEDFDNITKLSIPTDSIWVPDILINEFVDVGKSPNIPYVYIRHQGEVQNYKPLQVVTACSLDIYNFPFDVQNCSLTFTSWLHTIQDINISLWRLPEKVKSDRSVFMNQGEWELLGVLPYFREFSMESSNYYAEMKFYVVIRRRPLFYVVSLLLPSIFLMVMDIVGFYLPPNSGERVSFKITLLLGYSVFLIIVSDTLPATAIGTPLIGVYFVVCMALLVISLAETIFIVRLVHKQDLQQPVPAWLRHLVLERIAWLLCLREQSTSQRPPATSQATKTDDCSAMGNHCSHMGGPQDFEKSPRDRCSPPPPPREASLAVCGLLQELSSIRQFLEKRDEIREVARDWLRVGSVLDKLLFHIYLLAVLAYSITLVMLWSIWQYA

[2] = molecular target: Ca2+ channel (L, dihydropyridine site)
D1 (h) (human), P21728 = molecular target: T2, D1 (h) (human), P21728; conditions: remark: other sources report otherwise
T2 chain: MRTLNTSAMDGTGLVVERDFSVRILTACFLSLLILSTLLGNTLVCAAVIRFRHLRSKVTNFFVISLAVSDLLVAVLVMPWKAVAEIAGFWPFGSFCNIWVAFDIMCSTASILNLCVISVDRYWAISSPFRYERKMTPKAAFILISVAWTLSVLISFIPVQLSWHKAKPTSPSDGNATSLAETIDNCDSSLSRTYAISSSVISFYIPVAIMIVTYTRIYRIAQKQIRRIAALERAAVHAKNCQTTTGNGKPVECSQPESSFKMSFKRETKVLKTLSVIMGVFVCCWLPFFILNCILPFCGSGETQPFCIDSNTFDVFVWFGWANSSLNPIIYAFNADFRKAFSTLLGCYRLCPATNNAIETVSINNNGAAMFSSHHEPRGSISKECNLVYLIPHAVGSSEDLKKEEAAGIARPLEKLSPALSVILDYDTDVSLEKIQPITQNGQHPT

H2 (h) (human), P25021 = conditions: remark: other sources report otherwise
Chain of H2 (h) (human), P25021 (P25021 whole entry): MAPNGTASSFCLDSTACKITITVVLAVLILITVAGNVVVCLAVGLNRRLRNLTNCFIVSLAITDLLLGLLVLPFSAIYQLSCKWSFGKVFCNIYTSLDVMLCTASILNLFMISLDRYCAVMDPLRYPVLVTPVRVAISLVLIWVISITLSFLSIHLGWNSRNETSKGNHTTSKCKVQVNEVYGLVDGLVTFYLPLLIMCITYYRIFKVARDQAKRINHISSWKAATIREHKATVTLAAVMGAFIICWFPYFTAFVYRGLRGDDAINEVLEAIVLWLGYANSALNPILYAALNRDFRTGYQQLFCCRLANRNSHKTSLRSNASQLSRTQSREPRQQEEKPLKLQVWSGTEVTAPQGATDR

M2 (h) (human), P08172 = molecular target: T3, M2 (h) (human), P08172; conditions: remark: other sources report otherwise
T3 chain: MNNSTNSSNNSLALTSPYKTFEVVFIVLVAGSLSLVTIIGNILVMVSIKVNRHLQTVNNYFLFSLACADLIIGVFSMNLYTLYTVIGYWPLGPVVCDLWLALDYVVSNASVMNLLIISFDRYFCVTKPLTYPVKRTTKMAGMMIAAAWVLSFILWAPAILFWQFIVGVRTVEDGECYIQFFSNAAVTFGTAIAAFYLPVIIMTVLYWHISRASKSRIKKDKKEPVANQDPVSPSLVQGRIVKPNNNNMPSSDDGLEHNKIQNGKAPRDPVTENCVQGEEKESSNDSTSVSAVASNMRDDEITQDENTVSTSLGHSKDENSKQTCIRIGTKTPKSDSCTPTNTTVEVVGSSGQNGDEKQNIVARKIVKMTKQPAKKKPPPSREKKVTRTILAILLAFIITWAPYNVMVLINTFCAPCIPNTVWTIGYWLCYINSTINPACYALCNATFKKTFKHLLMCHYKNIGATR

[3] = molecular target: T4, MAO-A (Rattus norvegicus (Rat)), P21396
T4 chain: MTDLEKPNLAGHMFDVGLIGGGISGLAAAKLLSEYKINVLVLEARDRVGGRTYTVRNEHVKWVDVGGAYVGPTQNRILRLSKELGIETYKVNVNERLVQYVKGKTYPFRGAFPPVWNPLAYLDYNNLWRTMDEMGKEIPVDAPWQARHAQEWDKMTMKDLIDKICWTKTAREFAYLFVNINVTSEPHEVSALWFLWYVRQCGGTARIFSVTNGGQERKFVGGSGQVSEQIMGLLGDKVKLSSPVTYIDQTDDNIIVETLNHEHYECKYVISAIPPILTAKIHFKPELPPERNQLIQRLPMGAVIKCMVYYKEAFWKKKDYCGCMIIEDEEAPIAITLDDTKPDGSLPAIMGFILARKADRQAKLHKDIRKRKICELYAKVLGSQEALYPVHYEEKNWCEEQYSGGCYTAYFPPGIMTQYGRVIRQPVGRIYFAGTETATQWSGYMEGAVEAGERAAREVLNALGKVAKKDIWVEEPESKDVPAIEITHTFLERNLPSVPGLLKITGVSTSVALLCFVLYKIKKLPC

Na+ channel (site 2) = molecular target: Na+ channel (site 2)
[4] = molecular target: T5, dopamine transporter (h) (human), Q01959; conditions: remark: other sources report otherwise
T5 chain: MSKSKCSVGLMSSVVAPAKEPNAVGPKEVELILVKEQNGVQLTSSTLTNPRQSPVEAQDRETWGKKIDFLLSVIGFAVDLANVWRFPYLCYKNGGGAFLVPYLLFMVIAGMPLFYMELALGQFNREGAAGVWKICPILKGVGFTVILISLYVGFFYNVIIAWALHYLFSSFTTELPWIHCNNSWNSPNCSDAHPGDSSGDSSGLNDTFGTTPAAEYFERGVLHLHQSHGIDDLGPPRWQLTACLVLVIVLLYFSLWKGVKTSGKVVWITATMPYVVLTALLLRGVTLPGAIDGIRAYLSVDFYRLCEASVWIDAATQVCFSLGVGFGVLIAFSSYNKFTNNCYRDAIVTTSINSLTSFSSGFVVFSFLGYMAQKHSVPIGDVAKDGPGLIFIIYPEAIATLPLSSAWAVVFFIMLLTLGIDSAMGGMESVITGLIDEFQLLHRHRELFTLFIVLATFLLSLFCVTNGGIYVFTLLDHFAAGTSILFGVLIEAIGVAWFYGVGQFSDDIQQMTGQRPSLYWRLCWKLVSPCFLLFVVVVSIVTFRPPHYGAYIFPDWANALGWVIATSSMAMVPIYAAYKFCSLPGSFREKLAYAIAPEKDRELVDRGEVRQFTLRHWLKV

[5] = molecular target: norepinephrine transporter (h) (human), P23975; conditions: remark: other sources report otherwise
Chain of norepinephrine transporter (h) (human), P23975 (P23975 whole entry): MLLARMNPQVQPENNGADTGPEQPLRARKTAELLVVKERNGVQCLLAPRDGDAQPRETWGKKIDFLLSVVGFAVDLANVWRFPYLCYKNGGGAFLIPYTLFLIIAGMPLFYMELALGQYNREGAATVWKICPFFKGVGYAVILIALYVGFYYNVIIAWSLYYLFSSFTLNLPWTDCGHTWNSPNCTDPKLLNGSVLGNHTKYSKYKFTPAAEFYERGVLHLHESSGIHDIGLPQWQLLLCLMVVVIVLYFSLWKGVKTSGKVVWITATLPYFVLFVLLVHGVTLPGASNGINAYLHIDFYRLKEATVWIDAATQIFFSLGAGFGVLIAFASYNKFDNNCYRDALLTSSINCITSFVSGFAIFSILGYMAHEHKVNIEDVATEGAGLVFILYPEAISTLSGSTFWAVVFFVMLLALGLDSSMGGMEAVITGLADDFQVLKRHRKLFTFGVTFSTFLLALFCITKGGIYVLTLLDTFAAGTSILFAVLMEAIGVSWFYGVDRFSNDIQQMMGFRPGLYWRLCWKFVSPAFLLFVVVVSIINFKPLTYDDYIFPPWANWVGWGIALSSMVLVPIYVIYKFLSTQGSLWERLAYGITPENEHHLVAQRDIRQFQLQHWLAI

% Inhibition of Specific Binding [1]: 4% | % Inhibition of Specific Binding [2]: 54% | % Inhibition of Specific Binding (D1 (h) (human), P21728): 7% | % Inhibition of Specific Binding (H2 (h) (human), P25021): -16% | % Inhibition of Specific Binding (M2 (h) (human), P08172): 7% | % Inhibition of Specific Binding [3]: -25% | % Inhibition of Specific Binding (Na+ channel (site 2)): 14% | % Inhibition of Specific Binding [4]: 7% | % Inhibition of Specific Binding [5]: -5%
B1: Hex-[Cys(tMeBn(DOTA-AET))-Pro-Pro-Thr-Gln-Phe-Cys]-OH (peptide)
peptide: Hex-CPPTQFC-OH
modifications: bridge 1-7; not fully specified (bridges); printed as Hex-[Cys(tMeBn(DOTA-AET))-Pro-Pro-Thr-Gln-Phe-Cys]-OH

B2: Hex-[Cys(tMeBn(DOTA-PP))-Pro-Pro-Thr-Gln-Phe-Cys]-Asp-NH2 (peptide)
peptide: Hex-CPPTQFCD-NH2
modifications: bridge 1-7; not fully specified (bridges); printed as Hex-[Cys(tMeBn(DOTA-PP))-Pro-Pro-Thr-Gln-Phe-Cys]-Asp-NH2
% Inhibition of Specific Binding [1]: 2% | % Inhibition of Specific Binding [2]: 42% | % Inhibition of Specific Binding (D1 (h) (human), P21728): 0% | % Inhibition of Specific Binding (H2 (h) (human), P25021): -5% | % Inhibition of Specific Binding (M2 (h) (human), P08172): -4% | % Inhibition of Specific Binding [3]: -5% | % Inhibition of Specific Binding (Na+ channel (site 2)): -7% | % Inhibition of Specific Binding [4]: 12% | % Inhibition of Specific Binding [5]: -8%
